Article PMC3610751

What was measured:
[1] = test system: NP isolated from virus (Influenza A virus (strain for filter assay not stated; A/PR/8/34 used for MS)); assay: filter binding; settings: running buffer with 300 mM NaCl and 0.025% P20, 25 C, conditions not given
[2] = test system: wt NP, recombinant (filter binding) (Influenza A virus (A/WSN/33, H1N1)); assay: filter binding; settings: running buffer with 300 mM NaCl and 0.025% P20, 25 C, conditions not given
[3] = biological target: wild type nucleoprotein of influenza A virus H1N1 strain A/WSN/33 (influenza A virus H1N1 strain A/WSN/33); assay: crystal structure

Substance | Kd [1] [µM] | Kd [2] [µM] | stoichiometry N [3]
81 nt panhandle RNA | 0.03 | 0.03 | –
wild type nucleoprotein of influenza A virus H1N1 strain A/WSN/33 (natural protein) | – | – | 3
